Experiments:
[1] = target: T1, E. coli PheT subunit of phenylalanyl-tRNA synthetase (E. coli, UniProt P07395 1-795); experiment: IMAC pull-down of cell-free produced PheRS(A294G)
T1 construct: also called PheT domain
T1 sequence: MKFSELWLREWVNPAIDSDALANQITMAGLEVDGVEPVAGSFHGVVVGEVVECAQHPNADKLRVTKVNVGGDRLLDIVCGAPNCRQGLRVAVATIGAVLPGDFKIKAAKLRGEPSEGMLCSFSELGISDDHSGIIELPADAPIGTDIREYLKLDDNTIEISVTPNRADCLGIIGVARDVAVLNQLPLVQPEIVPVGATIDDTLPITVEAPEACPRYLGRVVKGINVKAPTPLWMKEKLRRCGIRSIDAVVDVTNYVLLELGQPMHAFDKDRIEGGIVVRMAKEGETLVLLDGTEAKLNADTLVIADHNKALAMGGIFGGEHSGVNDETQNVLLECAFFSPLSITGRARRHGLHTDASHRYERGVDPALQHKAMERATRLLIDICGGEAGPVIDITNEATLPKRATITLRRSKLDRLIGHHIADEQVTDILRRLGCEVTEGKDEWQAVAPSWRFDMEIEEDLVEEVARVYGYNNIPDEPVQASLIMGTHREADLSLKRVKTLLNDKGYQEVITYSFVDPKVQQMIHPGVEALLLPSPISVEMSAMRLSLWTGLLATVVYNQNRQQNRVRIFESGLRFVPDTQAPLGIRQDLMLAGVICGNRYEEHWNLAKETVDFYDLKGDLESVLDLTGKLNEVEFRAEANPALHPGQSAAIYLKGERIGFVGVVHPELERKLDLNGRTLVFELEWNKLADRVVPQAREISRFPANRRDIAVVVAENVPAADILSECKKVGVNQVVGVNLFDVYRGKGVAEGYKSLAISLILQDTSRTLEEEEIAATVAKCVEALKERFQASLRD

PheT MP = target: T2, PheT MP (E. coli, UniProt P07395 1-795); experiment: IMAC co-purification after cell-free co-synthesis of PheS(A294G) and PheT variant
T2 construct: also called PheT R794M R788P
T2 sequence: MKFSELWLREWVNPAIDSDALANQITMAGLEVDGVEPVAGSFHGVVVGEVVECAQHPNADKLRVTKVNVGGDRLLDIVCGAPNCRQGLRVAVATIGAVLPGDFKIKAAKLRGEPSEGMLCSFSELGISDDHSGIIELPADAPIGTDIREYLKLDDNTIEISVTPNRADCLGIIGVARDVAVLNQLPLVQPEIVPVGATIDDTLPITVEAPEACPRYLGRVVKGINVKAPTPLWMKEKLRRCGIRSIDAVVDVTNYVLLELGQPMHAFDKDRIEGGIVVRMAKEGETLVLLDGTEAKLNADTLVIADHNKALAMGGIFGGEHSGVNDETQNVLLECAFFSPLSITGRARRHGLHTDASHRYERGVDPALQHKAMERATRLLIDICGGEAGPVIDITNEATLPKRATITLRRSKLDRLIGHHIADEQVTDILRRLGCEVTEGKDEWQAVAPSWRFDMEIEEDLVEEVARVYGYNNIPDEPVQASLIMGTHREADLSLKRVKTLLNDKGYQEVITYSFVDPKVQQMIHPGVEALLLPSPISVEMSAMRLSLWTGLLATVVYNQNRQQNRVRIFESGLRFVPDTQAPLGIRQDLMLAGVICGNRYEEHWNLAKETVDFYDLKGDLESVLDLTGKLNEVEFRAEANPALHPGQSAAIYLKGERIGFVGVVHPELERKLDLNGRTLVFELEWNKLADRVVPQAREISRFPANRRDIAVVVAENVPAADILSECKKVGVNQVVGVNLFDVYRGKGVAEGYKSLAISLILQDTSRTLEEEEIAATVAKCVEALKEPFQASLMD

PheT AP = target: T3, PheT AP (E. coli, UniProt P07395 1-795); experiment: as above
T3 construct: also called PheT R794A A791P
T3 sequence: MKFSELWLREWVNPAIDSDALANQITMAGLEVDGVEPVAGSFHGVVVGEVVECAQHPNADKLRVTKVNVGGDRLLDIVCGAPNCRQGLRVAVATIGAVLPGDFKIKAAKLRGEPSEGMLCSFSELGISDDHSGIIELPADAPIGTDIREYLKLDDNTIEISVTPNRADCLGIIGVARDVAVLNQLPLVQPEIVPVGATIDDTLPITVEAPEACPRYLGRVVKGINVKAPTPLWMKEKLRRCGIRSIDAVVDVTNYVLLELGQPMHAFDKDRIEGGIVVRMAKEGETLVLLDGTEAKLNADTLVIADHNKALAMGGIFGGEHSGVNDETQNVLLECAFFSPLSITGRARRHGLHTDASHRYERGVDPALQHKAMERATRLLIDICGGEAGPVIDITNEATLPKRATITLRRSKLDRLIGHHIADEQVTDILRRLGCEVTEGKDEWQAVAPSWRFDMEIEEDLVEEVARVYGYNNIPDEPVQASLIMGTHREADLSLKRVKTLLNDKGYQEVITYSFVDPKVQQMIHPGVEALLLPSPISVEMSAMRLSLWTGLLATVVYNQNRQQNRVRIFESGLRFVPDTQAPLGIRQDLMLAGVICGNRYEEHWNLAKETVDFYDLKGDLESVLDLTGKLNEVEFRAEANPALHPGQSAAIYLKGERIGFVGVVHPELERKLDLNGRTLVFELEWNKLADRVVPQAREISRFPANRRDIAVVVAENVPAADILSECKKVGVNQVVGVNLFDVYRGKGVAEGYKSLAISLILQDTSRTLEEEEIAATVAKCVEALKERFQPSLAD

PheT K = target: T4, PheT K (E. coli, UniProt P07395 1-795); experiment: as above
T4 construct: also called PheT R794K
T4 sequence: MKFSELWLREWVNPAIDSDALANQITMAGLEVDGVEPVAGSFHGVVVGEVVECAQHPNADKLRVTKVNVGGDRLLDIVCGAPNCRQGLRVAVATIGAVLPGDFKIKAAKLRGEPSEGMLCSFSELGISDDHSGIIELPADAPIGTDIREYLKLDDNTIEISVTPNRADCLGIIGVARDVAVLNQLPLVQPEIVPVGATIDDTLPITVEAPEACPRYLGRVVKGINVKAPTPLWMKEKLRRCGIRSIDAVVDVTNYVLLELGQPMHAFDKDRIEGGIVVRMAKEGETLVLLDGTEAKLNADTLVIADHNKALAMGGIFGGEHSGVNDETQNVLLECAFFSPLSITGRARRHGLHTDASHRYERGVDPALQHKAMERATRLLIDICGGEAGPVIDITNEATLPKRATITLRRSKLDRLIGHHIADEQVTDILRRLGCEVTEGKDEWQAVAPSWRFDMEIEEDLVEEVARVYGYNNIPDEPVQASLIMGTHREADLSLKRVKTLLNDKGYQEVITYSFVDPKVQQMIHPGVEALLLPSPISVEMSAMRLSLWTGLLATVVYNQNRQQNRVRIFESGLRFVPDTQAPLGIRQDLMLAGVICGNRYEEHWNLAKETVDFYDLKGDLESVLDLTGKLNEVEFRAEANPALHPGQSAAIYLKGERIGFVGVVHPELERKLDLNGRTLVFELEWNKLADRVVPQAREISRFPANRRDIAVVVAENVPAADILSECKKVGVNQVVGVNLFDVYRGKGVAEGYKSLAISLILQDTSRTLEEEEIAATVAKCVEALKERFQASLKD

PheT KV = target: T5, PheT KV (E. coli, UniProt P07395 1-795); experiment: as above
T5 construct: also called PheT R794K A15V
T5 sequence: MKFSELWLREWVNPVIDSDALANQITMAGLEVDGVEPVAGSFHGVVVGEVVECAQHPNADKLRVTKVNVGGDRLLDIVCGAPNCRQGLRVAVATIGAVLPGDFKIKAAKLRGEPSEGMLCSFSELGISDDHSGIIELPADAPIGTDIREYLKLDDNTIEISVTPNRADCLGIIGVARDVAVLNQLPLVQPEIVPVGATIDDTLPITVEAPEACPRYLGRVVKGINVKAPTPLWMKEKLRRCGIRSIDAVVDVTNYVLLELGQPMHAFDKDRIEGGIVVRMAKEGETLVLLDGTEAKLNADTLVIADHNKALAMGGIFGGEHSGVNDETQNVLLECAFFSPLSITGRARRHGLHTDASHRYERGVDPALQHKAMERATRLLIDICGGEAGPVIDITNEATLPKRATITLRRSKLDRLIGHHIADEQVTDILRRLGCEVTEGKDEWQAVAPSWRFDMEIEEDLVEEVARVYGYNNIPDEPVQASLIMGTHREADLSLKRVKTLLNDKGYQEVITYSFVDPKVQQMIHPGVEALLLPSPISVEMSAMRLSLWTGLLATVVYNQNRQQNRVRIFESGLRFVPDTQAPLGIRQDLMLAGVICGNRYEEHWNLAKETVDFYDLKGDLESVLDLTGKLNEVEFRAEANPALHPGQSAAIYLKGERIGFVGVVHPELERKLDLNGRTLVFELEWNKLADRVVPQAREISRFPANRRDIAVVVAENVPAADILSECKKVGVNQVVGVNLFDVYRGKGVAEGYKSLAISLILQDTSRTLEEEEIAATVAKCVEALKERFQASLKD

Measured: binding result

B1: 6X His-tagged E. coli PheS(A294G) subunit of phenylalanyl-tRNA synthetase (enzyme)
chain: MSHLAELVASAKAAISQASDVAALDNVRVEYLGKKGHLTLQMTTLRELPPEERPAAGAVINEAKEQVQQALNARKAELESAALNARLAAETIDVSLPGRRIENGGLHPVTRTIDRIESFFGELGFTVATGPEIEDDYHNFDALNIPGHHPARADHDTFWFDTTRLLRTQTSGVQIRTMKAQQPPIRIIAPGRVYRNDYDQTHTPMFHQMEGLIVDTNISFTNLKGTLHDFLRNFFEEDLQIRFRPSYFPFTEPSAEVDVMGKNGKWLEVLGCGMVHPNVLRNVGIDPEVYSGFGFGMGMERLTMLRYGVTDLRSFFENDLRFLKQFK
notes: also called 6XHisPheS(A294G); PheS(A294G) domain
binds: all assays above
